Patent publication US20260098080A1, “A MODIFIED PROTEIN SCAFFOLD AND USE THEREOF” (EVOLVERITAS BIOTECHNOLÓGIAI KORLÁTOLT FELELOSSÉGU TÁRSASÁG, priority 2022, published 2026)
Residue numbers refer to the chain shown, from its start. Several values for one entry are separate records, joined by “and”; a condition that tells them apart may be missing. Equal entries are not always repeated. Bridges are numbered along the chain shown (N, C = ends). Where no end group is shown, it is not given here.

Tests used:
extrinsic pathway = assay: Human blood coagulation: prothrombin time; assay type: biochemical; conditions: human plasma, duplicates 21/1 and 21/2
Experimental: (§1) The effect of the proteins of the present invention on the blood coagulation process was tested in three standard assays, the thrombin time, testing any direct effects on thrombin; prothrombin time, testing any effects on the extrinsic pathway; and the activated partial thromboplastin time, testing any effects on the intrinsic pathway.
(§2) Blood was collected from a healthy individual by vein puncture after informed consent. The blood was treated with sodium-citrate (3.8% wt/vol) and centrifuged. All three assays were performed on the automated instrument Sysmex CA-1500 (Sysmex) with Innovin reagent (Dale Behring, Marburg, Germany).
(§3) The proteins of the present invention were applied in a twofold serial dilution in 1.4% wt/vol sodium bicarbonate (vehicle) with the highest final concentration being 10 μM (3.4 μM for EVO24 (SEQ ID NO: 15)) and the lowest final concentration being 156 nM (53 nM for EVO24 (SEQ ID NO: 15)).
(§4) All measurements were done in duplicates and a vehicle control was also tested. The highest concentration value is about 5 orders of magnitudes higher than the KD values of the four proteins of the present invention on human MASP-2.

intrinsic pathway = assay: Human blood coagulation: activated partial thromboplastin time; assay type: biochemical; conditions: human plasma, duplicates 21/1 and 21/2
Experimental: as §1, §2, §3, §4

thrombin = assay: Human blood coagulation: thrombin time; assay type: biochemical; conditions: human plasma, duplicates 21/1 and 21/2
Experimental: as §1, §2, §3, §4

[1] = biological target: T1, human MASP-2 (in normal human serum) (human, UniProt O00187 16-686); assay: cell-based or functional assay
[2] = biological target: rat MASP-2 (in rat serum) (rat, UniProt Q9JJS8 20-685); assay: cell-based or functional assay
[3] = biological target: T2, human MASP-2cf CCP1-CCP2-SP (human, UniProt O00187 298-686, limits assumed); assay: SPR, target immobilised
T2 construct: domain: CCP1-CCP2-SP; also called human MASP-2 catalytic fragment

[4] = biological target: T3, rat MASP-2cf CCP1-CCP2-SP (rat, UniProt Q9JJS8 298-685); assay: SPR, target immobilised
T3 construct: range 298-685; Mw 42309 Da; also called rat MASP-2 catalytic fragment

[5] = biological target: T2, human MASP-2cf CCP1-CCP2-SP; assay: enzyme inhibition, tight-binding fit
[6] = biological target: T3, rat MASP-2cf CCP1-CCP2-SP; assay: enzyme inhibition, tight-binding fit
[7] = biological target: T1, human MASP-2 (in normal human serum); assay: cell-based or functional assay; remark: listed apart in the source

Chain of rat MASP-2 (in rat serum) (Q9JJS8 20-685 limits assumed): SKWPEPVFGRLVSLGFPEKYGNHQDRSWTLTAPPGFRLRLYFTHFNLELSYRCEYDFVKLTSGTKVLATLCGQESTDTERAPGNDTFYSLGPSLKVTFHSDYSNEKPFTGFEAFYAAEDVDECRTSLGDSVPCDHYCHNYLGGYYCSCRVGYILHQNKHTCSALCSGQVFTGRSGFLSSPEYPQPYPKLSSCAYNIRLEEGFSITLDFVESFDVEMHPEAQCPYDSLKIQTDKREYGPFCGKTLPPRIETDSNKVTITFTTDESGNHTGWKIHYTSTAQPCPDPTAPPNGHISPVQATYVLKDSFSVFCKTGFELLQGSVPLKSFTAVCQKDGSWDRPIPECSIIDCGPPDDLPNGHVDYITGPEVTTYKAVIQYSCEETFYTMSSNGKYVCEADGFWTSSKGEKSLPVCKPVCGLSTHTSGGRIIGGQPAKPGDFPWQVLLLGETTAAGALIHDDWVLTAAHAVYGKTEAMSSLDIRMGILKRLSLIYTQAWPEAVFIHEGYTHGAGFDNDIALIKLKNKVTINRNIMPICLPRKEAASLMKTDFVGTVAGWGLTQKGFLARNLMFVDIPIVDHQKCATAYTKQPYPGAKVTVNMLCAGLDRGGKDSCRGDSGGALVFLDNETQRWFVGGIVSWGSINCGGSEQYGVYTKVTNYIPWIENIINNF
T3 sequence (Q9JJS8 other isoform, or with tags, fused parts or gaps limits assumed, form in doubt): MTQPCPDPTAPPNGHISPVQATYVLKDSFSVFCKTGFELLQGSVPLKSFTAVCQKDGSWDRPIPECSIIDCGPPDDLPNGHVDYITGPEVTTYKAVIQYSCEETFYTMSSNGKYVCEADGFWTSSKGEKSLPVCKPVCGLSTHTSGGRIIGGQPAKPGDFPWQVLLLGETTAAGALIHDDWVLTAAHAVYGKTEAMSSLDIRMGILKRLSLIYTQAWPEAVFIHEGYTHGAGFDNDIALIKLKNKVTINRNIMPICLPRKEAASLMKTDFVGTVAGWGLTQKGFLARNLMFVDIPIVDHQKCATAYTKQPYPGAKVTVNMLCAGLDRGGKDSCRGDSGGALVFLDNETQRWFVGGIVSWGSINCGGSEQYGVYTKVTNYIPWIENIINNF
T2 sequence (O00187 298-686 limits assumed): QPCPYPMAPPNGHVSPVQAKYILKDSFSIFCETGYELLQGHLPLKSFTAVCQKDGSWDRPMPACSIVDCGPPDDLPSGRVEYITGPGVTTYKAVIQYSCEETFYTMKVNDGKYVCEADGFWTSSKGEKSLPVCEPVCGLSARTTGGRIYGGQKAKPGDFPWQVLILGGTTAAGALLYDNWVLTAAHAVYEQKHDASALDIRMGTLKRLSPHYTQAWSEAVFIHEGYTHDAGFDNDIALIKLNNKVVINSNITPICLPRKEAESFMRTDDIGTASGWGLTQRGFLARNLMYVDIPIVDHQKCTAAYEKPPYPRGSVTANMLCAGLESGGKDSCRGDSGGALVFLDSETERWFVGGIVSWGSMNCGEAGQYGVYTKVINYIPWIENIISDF
T1 sequence (O00187 16-686 limits assumed): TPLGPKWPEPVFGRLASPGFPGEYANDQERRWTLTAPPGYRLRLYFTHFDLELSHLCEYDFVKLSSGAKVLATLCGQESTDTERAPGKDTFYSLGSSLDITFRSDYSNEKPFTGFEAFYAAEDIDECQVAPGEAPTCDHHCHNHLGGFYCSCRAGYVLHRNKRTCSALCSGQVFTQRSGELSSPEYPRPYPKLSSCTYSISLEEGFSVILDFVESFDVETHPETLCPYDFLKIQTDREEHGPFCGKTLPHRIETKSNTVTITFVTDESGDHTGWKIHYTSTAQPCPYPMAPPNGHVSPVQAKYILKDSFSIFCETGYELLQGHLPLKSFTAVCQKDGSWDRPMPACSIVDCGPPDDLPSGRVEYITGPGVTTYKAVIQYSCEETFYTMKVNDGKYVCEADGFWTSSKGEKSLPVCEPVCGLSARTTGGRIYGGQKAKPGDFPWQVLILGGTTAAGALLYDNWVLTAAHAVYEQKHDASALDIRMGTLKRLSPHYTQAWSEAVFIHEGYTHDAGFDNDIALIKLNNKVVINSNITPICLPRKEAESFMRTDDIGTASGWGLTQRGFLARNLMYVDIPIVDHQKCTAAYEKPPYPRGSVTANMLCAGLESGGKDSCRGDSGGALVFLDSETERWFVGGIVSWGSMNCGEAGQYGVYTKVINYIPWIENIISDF

For “KPDFCFLENDPGPCRALKRRYFYNNQTKQCERFGYGGCLGNMNNFVTLEECKNICEDG (disulfide 5-55, 14-38, 30-51) [EVO21]”, which PI (extrinsic pathway; 0.15625 μM) is on record?
Its PI is 10.2 and 10.0.

What about the PI (extrinsic pathway; 0.3125 μM) of the same molecule?
The PI was 10.1 and 10.0.

And the PI (extrinsic pathway; 0.625 μM)?
The PI was 10.1 and 10.0.

And the PI (extrinsic pathway; 1.25 μM)?
Its PI is 10.2 and 10.1.

What about the PI (extrinsic pathway; 2.5 μM) of the same molecule?
Its PI is 10.3 and 10.2.

And the PI (extrinsic pathway; 5 μM)?
The PI was 10.6 and 10.3.

What about the PI (extrinsic pathway; 10 μM) of the same molecule?
Its PI is 11.4 and 11.9.

What about the APTT (intrinsic pathway; 0.15625 μM) of the same molecule?
The APTT was 32.9 and 32.3.

And the APTT (intrinsic pathway; 0.3125 μM)?
Its APTT is 33.6 and 32.8.

What about the APTT (intrinsic pathway; 0.625 μM) of the same molecule?
Its APTT is 34.3 and 33.6.

And the APTT (intrinsic pathway; 1.25 μM)?
Its APTT is 37.0 and 34.8.

And the APTT (intrinsic pathway; 2.5 μM)?
Its APTT is 40.0 and 37.1.

And the APTT (intrinsic pathway; 5 μM)?
The APTT was 45.6 and 40.1.

And the APTT (intrinsic pathway; 10 μM)?
The APTT was 58.7 and 67.6.

What about the TT (thrombin; 0.15625 μM) of the same molecule?
Its TT is 17.1 and 17.0.

And the TT (thrombin; 0.3125 μM)?
Its TT is 16.9 and 17.0.

And the TT (thrombin; 0.625 μM)?
Its TT is 16.8 and 16.9.

And the TT (thrombin; 1.25 μM)?
Its TT is 16.9 and 17.1.

What about the TT (thrombin; 2.5 μM) of the same molecule?
The TT was 16.4 and 17.4.

And the TT (thrombin; 5 μM)?
Its TT is 16.5 and 17.4.

What about the TT (thrombin; 10 μM) of the same molecule?
Its TT is 16.8 and 16.4.

B1: EVO22 (designed binder)
chain: KPDFCFLENDPGPCRALKRRYFYNNQTKQCERFYYGGCLGNMNNFVTLEECKNICEDG
modifications: not fully specified; cysteine pairing not given here
notes: Modified TFPI-D2 Kunitz domain; made as m1
For B1, which “IC50, lectin pathway C4 deposition, human serum” value (“IC50 … human serum” for short) [1] is on record?
The value was 4.1 nM.

What about the “Relative potency, lectin pathway, human serum” value (“Relative potency … human serum” for short) [1] of the same molecule?
The value was 33.4 fold vs EVO2.

What about the “IC50, lectin pathway C4 deposition, rat serum” value (“IC50 … rat serum” for short) [2] of the same molecule?
Its value is 9.9 nM.

What about the “Relative potency, lectin pathway, rat serum” value (shortened to “Relative potency … rat serum”) [2] of the same molecule?
Its value is 10.8 fold vs EVO2.

What about the Kd [3] of the same molecule?
Its Kd is 0.137 nM.

And the Relative affinity [3]?
The Relative affinity was 13.1 fold vs EVO2.

What about the koff [3] of the same molecule?
Its koff is 0.000314 s⁻¹.

And the kon [3]?
Its kon is 2.3e+06 M⁻¹ s⁻¹.

And the Kd [4]?
The Kd was 0.229 nM.

What about the Relative affinity [4] of the same molecule?
The Relative affinity was 15.9 fold vs EVO2.

And the koff [4]?
The koff was 0.000256 s⁻¹.

And the kon [4]?
The kon was 1.12e+06 M⁻¹ s⁻¹.

What about the Ki [5] of the same molecule?
The Ki was 0.15 nM.

What about the Ki [6] of the same molecule?
The Ki was 0.31 nM.

B2: EVO22d (designed binder)
chain: B1 chain with N9E, L17A, L39F
How did the “Relative potency (relative human lectin pathway inhibitory efficiency compared to EVO2)” value [7] turn out when B2 was run?
The value was 24.6 fold relative to EVO2.

What about the “IC50 … human serum” value [1] of the same molecule?
Its value is 5.6 nM.

And the “Relative potency … human serum” value [1]?
Its value is 24.7 fold vs EVO2.

What about the “IC50 … rat serum” value [2] of the same molecule?
The value was 10.4 nM.

What about the “Relative potency … rat serum” value [2] of the same molecule?
Its value is 10.2 fold vs EVO2.

B3: EVO211a (designed binder)
chain: B1 chain with N9E, P13W, Y34G, L39F
What does the source list for B3?
Relative potency (relative human lectin pathway inhibitory efficiency compared to EVO2) [7]: 13.5 fold relative to EVO2; IC50, lectin pathway C4 deposition, human serum [1]: 9.1 nM; Relative potency, lectin pathway, human serum [1]: 15.2 fold vs EVO2; IC50, lectin pathway C4 deposition, rat serum [2]: 30.6 nM; Relative potency, lectin pathway, rat serum [2]: 3.5 fold vs EVO2

B4: EVO214a (designed binder)
chain: B1 chain with N9E, R19L, Y34G, L39F
B4 was tested. Which “Relative potency (relative human lectin pathway inhibitory efficiency compared to EVO2)” value [7] did it give?
Its value is 15.2 fold relative to EVO2.

And the “IC50 … human serum” value [1]?
The value was 10.2 nM.

What about the “Relative potency … human serum” value [1] of the same molecule?
The value was 13.6 fold vs EVO2.

And the “IC50 … rat serum” value [2]?
The value was 20.3 nM.

What about the “Relative potency … rat serum” value [2] of the same molecule?
The value was 5.2 fold vs EVO2.

B5: EVO21a (designed binder)
chain: B1 chain with L17V, Y34G
modifications: not fully specified; cysteine pairing not given here
notes: as for B1
Which results are given for B5?
Relative potency (relative human lectin pathway inhibitory efficiency compared to EVO2) [7]: 6.4 fold relative to EVO2; IC50, lectin pathway C4 deposition, human serum [1]: 21.4 nM; Relative potency, lectin pathway, human serum [1]: 6.5 fold vs EVO2; IC50, lectin pathway C4 deposition, rat serum [2]: 39.4 nM; Relative potency, lectin pathway, rat serum [2]: 2.7 fold vs EVO2; Kd [3]: 0.723 nM; Relative affinity [3]: 2.5 fold vs EVO2; koff [3]: 0.000839 s⁻¹; kon [3]: 1.16e+06 M⁻¹ s⁻¹; Kd [4]: 2.02 nM; Relative affinity [4]: 1.8 fold vs EVO2; koff [4]: 0.00104 s⁻¹; kon [4]: 515000 M⁻¹ s⁻¹
